Where “and” joins values, the source holds several entries; their conditions need not be identical. Identical values can stand only once.
What was measured:
Test in all cases: EMSA
[1] = test system: alpha-synuclein (aSyn) (human); conditions: EMSA: 11 mM Tris, 1 mM EDTA, 50 mM NaCl, pH 8.0-8.5, 20 min on ice then 30 min RT, mutants/deltaNAC: 4 ul protein in 20 mM Tris-HCl, 200 mM NaCl in 10 ul, 0.5% …
[2] = test system: phospho-S129 alpha-synuclein (pSyn) (human); conditions: EMSA: 11 mM Tris, 1 mM EDTA, 50 mM NaCl, pH 8.0-8.5, 20 min on ice then 30 min RT, mutants/deltaNAC: 4 ul protein in 20 mM Tris-HCl, 200 mM NaCl in 10 ul, 0.5% …
[3] = test system: beta-synuclein (bSyn) (human); conditions: up to 57 uM protein, 4 nM DNA; EMSA: 11 mM Tris, 1 mM EDTA, 50 mM NaCl, pH 8.0-8.5, 20 min on ice then 30 min RT; mutants/deltaNAC: 4 ul protein in 20 mM Tris-HCl, 200 mM NaCl in 10 ul, 0.5% …
[4] = test system: gamma-synuclein (gSyn) (human); conditions: up to 57 uM protein, 4 nM DNA; EMSA: 11 mM Tris, 1 mM EDTA, 50 mM NaCl, pH 8.0-8.5, 20 min on ice then 30 min RT; mutants/deltaNAC: 4 ul protein in 20 mM Tris-HCl, 200 mM NaCl in 10 ul, 0.5% …
aSyn A30P (human) = conditions: 1.4 uM protein, 1.3 nM DNA; EMSA: 11 mM Tris, 1 mM EDTA, 50 mM NaCl, pH 8.0-8.5, 20 min on ice then 30 min RT; mutants/deltaNAC: 4 ul protein in 20 mM Tris-HCl, 200 mM NaCl in 10 ul, 0.5% …
aSyn E46K (human) = conditions: 1.4 uM protein, 1.3 nM DNA; EMSA: 11 mM Tris, 1 mM EDTA, 50 mM NaCl, pH 8.0-8.5, 20 min on ice then 30 min RT; mutants/deltaNAC: 4 ul protein in 20 mM Tris-HCl, 200 mM NaCl in 10 ul, 0.5% …
deltaNAC aSyn (human) = conditions: 1.4 uM protein, 1.3 nM DNA; EMSA: 11 mM Tris, 1 mM EDTA, 50 mM NaCl, pH 8.0-8.5, 20 min on ice then 30 min RT; mutants/deltaNAC: 4 ul protein in 20 mM Tris-HCl, 200 mM NaCl in 10 ul, 0.5% …
aSyn A53T (human) = conditions: 1.4 uM protein, 1.3 nM DNA; EMSA: 11 mM Tris, 1 mM EDTA, 50 mM NaCl, pH 8.0-8.5, 20 min on ice then 30 min RT; mutants/deltaNAC: 4 ul protein in 20 mM Tris-HCl, 200 mM NaCl in 10 ul, 0.5% …

125 bp DNA showed a binding signal (fraction shifted) [1] of 0.327 and a binding signal (fraction shifted) [2] of 0.007.
Substance 200 bp DNA has a binding signal (fraction shifted) [1] of 0.74 and a binding signal (fraction shifted) [2] of 0.12.
300 bp DNA (length series) showed a binding signal (fraction shifted) [1] of 0.803 and a binding signal (fraction shifted) [2] of 0.617.
For 300 bp DNA, 56% GC, the binding signal (fraction shifted) ([1]; 57 uM aSyn) was 0.81.
In the case of 300 bp DNA, 67% GC, the binding signal (fraction shifted) ([1]; 57 uM aSyn) is reported as 0.693.
“300 bp linear DNA (ends not specified for the experiment)” showed a binding signal (fraction shifted) [3] of 0, a binding signal (fraction shifted) [4] of 0 and a K half ([1]; 0.1 nM DNA) of 273 nM. It also gave a K half ([1]; 6 nM DNA) of 5850 nM, a binding signal (fraction shifted) ([1]; 1.4 uM protein, 1.3 nM DNA, deltaNAC series) of 0.597 and a binding signal (fraction shifted) ([1]; 1.4 uM protein, 1.3 nM DNA, point mutant series) of 0.55. The binding signal (fraction shifted) ([1]; 57 uM protein, 4 nM DNA, paralog series) was 0.199, the binding signal (fraction shifted) [1] was 1 and 0.997 and the binding signal (fraction shifted) (aSyn A30P (human)) was 0.27. It also gave a binding signal (fraction shifted) (aSyn E46K (human)) of 0.975, a binding signal (fraction shifted) (deltaNAC aSyn (human)) of 1 and a binding signal (fraction shifted) (aSyn A53T (human)) of 0.379. The K half ([2]; 0.1 nM DNA) was 27.3 µM and the K half ([2]; 6 nM DNA) was 32.5 µM.
Work on “300 bp linear DNA with 4-base 5' overhangs” yielded a binding signal (fraction shifted) [1] of 0.917 and a binding signal (fraction shifted) [2] of 0.573.
With 300 bp linear DNA, blunt the binding signal (fraction shifted) [1] was 0.857 and the binding signal (fraction shifted) [2] was 0.607.
In the case of 304 bp circular DNA (made with HMGB1), the K half ([1]; covalently closed circle) is reported as 1610 nM.
“304 bp circular DNA topoisomer (made with HMGB1)” was tested, and the K half ([1]; covalently closed circle, topoisomer) was 1640 nM.
In the case of 400 bp DNA, the binding signal (fraction shifted) [1] is reported as 0.947 and the binding signal (fraction shifted) [2] is reported as 0.927.
Substance 500 bp DNA has a binding signal (fraction shifted) [1] of 1 and a binding signal (fraction shifted) [2] of 1.
